# According to IntAct's records for PubMed 28712572:
# Molecular target: gbrap_human GABARAP (UniProt O95166)
# Sequence (O95166 whole entry): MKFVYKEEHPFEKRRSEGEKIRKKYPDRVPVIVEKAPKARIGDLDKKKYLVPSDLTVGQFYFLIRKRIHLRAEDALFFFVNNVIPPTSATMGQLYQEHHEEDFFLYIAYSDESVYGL
row,effect of a mutation on the interaction,Substance
1,disrupting interaction strength,"Pericentriolar material 1 protein (Homo sapiens), Q15154 V1966K"
2,decreasing interaction strength,"Pericentriolar material 1 protein (Homo sapiens), Q15154 E1960M"
3,disrupting interaction strength,"Pericentriolar material 1 protein (Homo sapiens), Q15154 V1966S"
4,with no effect,"Pericentriolar material 1 protein (Homo sapiens), Q15154 S1958M"
5,with no effect,"Pericentriolar material 1 protein (Homo sapiens), Q15154 L1973E"
6,with no effect,"Pericentriolar material 1 protein (Homo sapiens), Q15154 D1968Y"
7,with no effect,"Pericentriolar material 1 protein (Homo sapiens), Q15154 D1962F"
8,with no effect,"Pericentriolar material 1 protein (Homo sapiens), Q15154 K1957Y"
9,with no effect,"Pericentriolar material 1 protein (Homo sapiens), Q15154 I1954W"
10,with no effect,"Pericentriolar material 1 protein (Homo sapiens), Q15154 L1973D"
11,with no effect,"Pericentriolar material 1 protein (Homo sapiens), Q15154 K1965A"
12,with no effect,"Pericentriolar material 1 protein (Homo sapiens), Q15154 L1973N"
13,with no effect,"Pericentriolar material 1 protein (Homo sapiens), Q15154 D1968V"
14,with no effect,"Pericentriolar material 1 protein (Homo sapiens), Q15154 D1968F"
15,disrupting interaction strength,"Pericentriolar material 1 protein (Homo sapiens), Q15154 D1962K"
16,with no effect,"Pericentriolar material 1 protein (Homo sapiens), Q15154 K1957G"
17,with no effect,"Pericentriolar material 1 protein (Homo sapiens), Q15154 L1969A"
18,with no effect,"Pericentriolar material 1 protein (Homo sapiens), Q15154 E1967G"
19,with no effect,"Pericentriolar material 1 protein (Homo sapiens), Q15154 K1972I"

row,effect of a mutation on the interaction,Substance
1,with no effect,"Pericentriolar material 1 protein (Homo sapiens), Q15154 G1952A"
2,with no effect,"Pericentriolar material 1 protein (Homo sapiens), Q15154 S1955T"
3,with no effect,"Pericentriolar material 1 protein (Homo sapiens), Q15154 K1957E"
4,with no effect,"Pericentriolar material 1 protein (Homo sapiens), Q15154 Q1956L"
5,disrupting interaction strength,"Pericentriolar material 1 protein (Homo sapiens), Q15154 P1970T"
6,disrupting interaction strength,"Pericentriolar material 1 protein (Homo sapiens), Q15154 F1963Q"
7,decreasing interaction strength,"Pericentriolar material 1 protein (Homo sapiens), Q15154 P1970M"
8,with no effect,"Pericentriolar material 1 protein (Homo sapiens), Q15154 K1972N"
9,with no effect,"Pericentriolar material 1 protein (Homo sapiens), Q15154 D1968M"
10,disrupting interaction strength,"Pericentriolar material 1 protein (Homo sapiens), Q15154 V1964S"
11,with no effect,"Pericentriolar material 1 protein (Homo sapiens), Q15154 N1953P"
12,with no effect,"Pericentriolar material 1 protein (Homo sapiens), Q15154 N1953Q"
13,disrupting interaction strength,"Pericentriolar material 1 protein (Homo sapiens), Q15154 V1966N"
14,with no effect,"Pericentriolar material 1 protein (Homo sapiens), Q15154 L1971G"
15,decreasing interaction strength,"Pericentriolar material 1 protein (Homo sapiens), Q15154 E1961P"
16,with no effect,"Pericentriolar material 1 protein (Homo sapiens), Q15154 I1975M"
17,with no effect,"Pericentriolar material 1 protein (Homo sapiens), Q15154 G1952H"
18,with no effect,"Pericentriolar material 1 protein (Homo sapiens), Q15154 I1954L"

# Second part, the substance before the results:
row,Substance,effect of a mutation on the interaction
1,"Pericentriolar material 1 protein (Homo sapiens), Q15154 V1964M",disrupting interaction strength
2,"Pericentriolar material 1 protein (Homo sapiens), Q15154 D1962W",with no effect
3,"Pericentriolar material 1 protein (Homo sapiens), Q15154 K1965S",with no effect
4,"Pericentriolar material 1 protein (Homo sapiens), Q15154 D1959R",with no effect
5,"Pericentriolar material 1 protein (Homo sapiens), Q15154 L1973F",with no effect
6,"Pericentriolar material 1 protein (Homo sapiens), Q15154 T1974H",with no effect
7,"Pericentriolar material 1 protein (Homo sapiens), Q15154 K1957D",with no effect
8,"Pericentriolar material 1 protein (Homo sapiens), Q15154 E1960P",with no effect
9,"Pericentriolar material 1 protein (Homo sapiens), Q15154 I1975P",with no effect
10,"Pericentriolar material 1 protein (Homo sapiens), Q15154 G1952T",with no effect
11,"Pericentriolar material 1 protein (Homo sapiens), Q15154 K1957P",with no effect
12,"Pericentriolar material 1 protein (Homo sapiens), Q15154 S1958Q",with no effect
13,"Pericentriolar material 1 protein (Homo sapiens), Q15154 D1959P",with no effect
14,"Pericentriolar material 1 protein (Homo sapiens), Q15154 Q1956S",with no effect
15,"Pericentriolar material 1 protein (Homo sapiens), Q15154 V1966W",disrupting interaction strength
16,"Pericentriolar material 1 protein (Homo sapiens), Q15154 D1959N",with no effect

row,Substance,effect of a mutation on the interaction
1,"Pericentriolar material 1 protein (Homo sapiens), Q15154 K1965C",with no effect
2,"Pericentriolar material 1 protein (Homo sapiens), Q15154 P1970N",decreasing interaction strength
3,"Pericentriolar material 1 protein (Homo sapiens), Q15154 E1960G",with no effect
4,"Pericentriolar material 1 protein (Homo sapiens), Q15154 V1964K",disrupting interaction strength
5,"Pericentriolar material 1 protein (Homo sapiens), Q15154 G1952R",with no effect
6,"Pericentriolar material 1 protein (Homo sapiens), Q15154 F1963D",disrupting interaction strength
7,"Pericentriolar material 1 protein (Homo sapiens), Q15154 K1957Q",with no effect
8,"Pericentriolar material 1 protein (Homo sapiens), Q15154 D1968L",with no effect
9,"Pericentriolar material 1 protein (Homo sapiens), Q15154 F1963T",disrupting interaction strength
10,"Pericentriolar material 1 protein (Homo sapiens), Q15154 T1974L",with no effect
11,"Pericentriolar material 1 protein (Homo sapiens), Q15154 K1957F",with no effect
12,"Pericentriolar material 1 protein (Homo sapiens), Q15154 S1955I",with no effect
13,"Pericentriolar material 1 protein (Homo sapiens), Q15154 G1952D",with no effect
14,"Pericentriolar material 1 protein (Homo sapiens), Q15154 D1959T",with no effect
15,"Pericentriolar material 1 protein (Homo sapiens), Q15154 Q1956K",with no effect
16,"Pericentriolar material 1 protein (Homo sapiens), Q15154 K1965D",with no effect
